The RNAGym collection of RNA variant scans (doi:10.7554/elife.80360)

B1: Twister Ribozyme (parent)
chain: AACACUGCCAAUGCCGGUCCCAAGCCCGGAUAAAAGUGGAGGGGGCGG

Variants of: B1
Assay: self-cleavage, relative activity (ratio to wild type); higher = more cleavage; co-transcriptional

| Variant | self-cleavage |
| --- | --- |
| AACACUGCCAAUACCGGUCCCAAGCCCGGAUAAAAGUGGAGGGGGUGG [G13A C46U] | 0.931 |
| AACACUGCCAAUCCAGGUCCCAAGCCCGGAUAAAAGUGGAGGGGGCGG [G13C C15A] | 0.0696 |
| AACACUGCCAAUCCGGGUCCCAAGCCCGGAUAAAAGUGGAGGGGGCGG [G13C C15G] | 0.0922 |
| AACACUGCCAAUACCGGACCCAAGCCCGGAUAAAAGUGGAGGGGGCGG [G13A U18A] | 0.0831 |
| AACACUGCCAAUACUGGUCCCAAGCCCGGAUAAAAGUGGAGGGGGCGG [G13A C15U] | 0.579 |
| AACACUGCCAAUACGGGUCCCAAGCCCGGAUAAAAGUGGAGGGGGCGG [G13A C15G] | 0.118 |
| AACACUGCCAAUACCGGUCCCACGCCCGGAUAAAAGUGGAGGGGGCGG [G13A A23C] | 0.093 |
| AACACUGCCAAUCCCGGUCCUAAGCCCGGAUAAAAGUGGAGGGGGCGG [G13C C21U] | 0.0571 |
| AACACUGCCAAUCCCGGUCCGAAGCCCGGAUAAAAGUGGAGGGGGCGG [G13C C21G] | 0.0833 |
| AACACUGCCAAUCCCGGUCCAAAGCCCGGAUAAAAGUGGAGGGGGCGG [G13C C21A] | 0.0599 |
| AACACUGCCAAUACCGGUCCCAAGCCCGGAUAAAAGUGGAGGAGGCGG [G13A G43A] | 0.14 |
| AACACUGCCAAGGCCGGUCCCAAGCCCGGAUAAAAGUGGAGUGGGCGG [U12G G42U] | 0.531 |
| AACACUGCCAAGGCCGGUCCCAAGCCCGGAUAAAAGUGGAGAGGGCGG [U12G G42A] | 0.494 |
| AACACUGCCAAUCCCGAUCCCAAGCCCGGAUAAAAGUGGAGGGGGCGG [G13C G17A] | 0.0829 |
| AACACUGCCAAUACCGGUACCAAGCCCGGAUAAAAGUGGAGGGGGCGG [G13A C19A] | 0.113 |
| AACACUGCCAAUACCGGUUCCAAGCCCGGAUAAAAGUGGAGGGGGCGG [G13A C19U] | 0.284 |
| AACACUGCCAAUACCGGUCCCAAGCCCGGAUAAAAGUGCAGGGGGCGG [G13A G39C] | 0.168 |
| AACACUGCCAAUACCUGUCCCAAGCCCGGAUAAAAGUGGAGGGGGCGG [G13A G16U] | 0.168 |
| AACACUGCCAAUACCGGUCCCAAGCCCGGAUAAAAGUGGAGGGGGCAG [G13A G47A] | 0.457 |
| AACACUGCCAAUACCGGUCCCAAGCCCGGAUAAAAGUGGAGGGGGCCG [G13A G47C] | 0.272 |
| AACACUGCCAAUACCGGUCCCAAGCCCGGAUAAUAGUGGAGGGGGCGG [G13A A34U] | 0.64 |
| AACACUGCCAAUACCGGUCCCAAGCCCGGAUAAAAGUGGAGCGGGCGG [G13A G42C] | 0.34 |
| AACACUGCCAAUACCGGUCCCAAGCCCGGAUAAAAGUGGAGUGGGCGG [G13A G42U] | 0.191 |
| AACACUGCCAAUACCGGUCCCAAGCCUGGAUAAAAGUGGAGGGGGCGG [G13A C27U] | 0.482 |
| AACACUGCCAAUACCGGUCCCAAGCCAGGAUAAAAGUGGAGGGGGCGG [G13A C27A] | 0.0875 |
| AACACUGCCAAGGCCGGCCCCAAGCCCGGAUAAAAGUGGAGGGGGCGG [U12G U18C] | 0.437 |
| AACACUGCCAAGGCCGGACCCAAGCCCGGAUAAAAGUGGAGGGGGCGG [U12G U18A] | 0.46 |

| Variant | self-cleavage |
| --- | --- |
| AACACUGCCAAUACCGGUCCCAAGCCCGGAUAAAAGUGGAGGGGGCGC [G13A G48C] | 0.91 |
| AACACUGCCAAUACCGGUCCCAAGCCCGGAUAAAAGUGGAGGGGGCGU [G13A G48U] | 0.705 |
| AACACUGCCAAUACCGGUCCCAAGCCCGGAUCAAAGUGGAGGGGGCGG [G13A A32C] | 0.689 |
| AACACUGCCAAUACCGGUCCCAAGCCCGGAUACAAGUGGAGGGGGCGG [G13A A33C] | 0.825 |
| AACACUGCCAAUACCGGUCCCAAGCCCGGAUAGAAGUGGAGGGGGCGG [G13A A33G] | 0.943 |
| AACACUGCCAAUACCGGUCCCUAGCCCGGAUAAAAGUGGAGGGGGCGG [G13A A22U] | 0.424 |
| AACACUGCCAAUACCGGUCCCCAGCCCGGAUAAAAGUGGAGGGGGCGG [G13A A22C] | 1.05 |
| AACACUGCCAAUACCGGUCCCAAGCCCGCAUAAAAGUGGAGGGGGCGG [G13A G29C] | 0.692 |
| AACACUGCCAAUACCGGUCCCAAGCCCGUAUAAAAGUGGAGGGGGCGG [G13A G29U] | 0.598 |
| AACACUGCCAAUACCGGUCCCAAGCCCGAAUAAAAGUGGAGGGGGCGG [G13A G29A] | 0.653 |
| AACACUGCCAAGGCCGGUCCCAAGCCCGGAUAAAAGCGGAGGGGGCGG [U12G U37C] | 0.593 |
| AACACUGCCAAGGCCGGUCCCAAGCCCGGAUAAAAGGGGAGGGGGCGG [U12G U37G] | 0.653 |
| AACACUGCCAAUCCCGGUCCCAAGCCCGGAUUAAAGUGGAGGGGGCGG [G13C A32U] | 0.108 |
| AACACUGCCAAGGCCGGUCCCAAGCCCGGAAAAAAGUGGAGGGGGCGG [U12G U31A] | 0.746 |
| AACACUGCCAAGGCCGGUCCCAAGCCCGGACAAAAGUGGAGGGGGCGG [U12G U31C] | 0.907 |
| AACACUGCCAAGGCCGGUCCCAAGCCCGGAGAAAAGUGGAGGGGGCGG [U12G U31G] | 0.834 |
| AACACUGCCAAGGCCGGUCCCAAGCCCGGAUAAAAGUGGAGGGGGCCG [U12G G47C] | 0.528 |
| AACACUGCCAAUCCCGGUCCCAAGUCCGGAUAAAAGUGGAGGGGGCGG [G13C C25U] | 0.163 |
| AACACUGCCAAUCCCGGUCCCAAGGCCGGAUAAAAGUGGAGGGGGCGG [G13C C25G] | 0.101 |
| AACACUGCCAAUCCCGGUCCCAAGCCCGGAUAACAGUGGAGGGGGCGG [G13C A34C] | 0.0766 |
| AACACUGCCAAUCCCGGUCCCAAGCCCGGAUAAGAGUGGAGGGGGCGG [G13C A34G] | 0.253 |
| AACACUGCCAAUCCCGGUCCCAAGCCCGGAUAAUAGUGGAGGGGGCGG [G13C A34U] | 0.137 |
| AACACUGCCAAUCCCGGUCCCAAUCCCGGAUAAAAGUGGAGGGGGCGG [G13C G24U] | 0.0687 |
| AACACUGCCAAUCCCGGUCCCAAGCCGGGAUAAAAGUGGAGGGGGCGG [G13C C27G] | 0.104 |
| AACACUGCCAAUCCCGGUCCCAAGCCCGGAUAAAAGUCGAGGGGGCGG [G13C G38C] | 0.32 |
| AACACUGCCAAUACCGGUCCGAAGCCCGGAUAAAAGUGGAGGGGGCGG [G13A C21G] | 0.105 |
| AACACUGCCAAUACCGGUCCUAAGCCCGGAUAAAAGUGGAGGGGGCGG [G13A C21U] | 0.0803 |
